Assay: label from the status in PepcDB records

| Sequence | protein production |
| --- | --- |
| MTSPLRPEDPTRVGDYDLVARIGKGGQGVVYLGKAPDGTRVAVKVMETSWASNSRARSRFAKEIEAASKVAPFCTAALLDSDINADPPYIVSEYIEGPSLRDAVLRDGPRTGAALDRLAISTATALVAIHQAGVIHRDFKPANVLLGPDGPRVIDFGIARHSEATVTATDSIVGTPAYMAPEQVEGRELTPAVDIFAWAGVMVFAATGQSPFHDETLPAIINRVLHQPPRLDGVDERLRPLLEACLAKEPERRPTAVQVLGVLVGHDPATLPQVPVEEVLENGYTAALNEQTQIAATAALPIPIGDQAPEPAPTAVMPAAEDTPAPESRTPVSGLAALAANRPADEAPASSPPSGPLRTTSGLAALVNTGENKQPTASSPGEGPPRRSAGPGHQPLPPRSTRERKTVLSWLVAAGILIIVLAGGWFLIDTFLLSPNGQSPEATPVDGTRRDTPAQDGIDDSVPSPSAIDPDTPTSSDTGYPGGELYPSLPYDDMSQTDPMEEPHLNPTIPGEGPWHSPPAGEEAPGQPHGGGAEEGGSEGGEQPGTGGPGGSGEGGAGVGRVAVSPAAP | failed |
| MTSRPSSDQTWQPIDGRVALIAPASAIATDVLEATLRQLEVHGVDYHLGRHVEARYRYLAGTVEQRLEDLHNAFDMPDITAVWCLRGGYGCGQLLPGLDWGRLQAASPRPLIGFSDISVLLSAFHRHGLPAIHGPVATGLGLSPLSAPREQQERLASLASVSRLLAGIDHELPVQHLGGHKQRVEGALIGGNLTALACMAGTLGGLHAPAGSILVLEDVGEPYYRLERSLWQLLESIDARQLGAICLGSFTDCPRKEVAHSLERIFGEYAAAIEVPLYHHLPSGHGAQNRAWPYGKTAVLEGNRLRW | not failed |
| MTSTHQAAHRTGSTMRLRILIATDTYPPDVNGASYFTYRLATGLAERGHDVHVVCASASGPPRVEVQDGVVLHRMRSVPVLVHPTMRTALPLGLTGHIARIVDRLAPHVVHVQSHFTISRTALRCGRMAGVPVVLTNHFMPDNLFAHAHIPPRLHGVVGSLAWQDMIRVARTADYVTTPTQRAAELLASKGFTRTVEAVSCGIDLDRFRPRPQDRAQARAHFGLPDRETMVFVGRLDEEKRIDESIRALPVLLRHRDVQLVLAGTGQRREELERLARSLGVAERVHFLGFVPDDDLPLVYVAADLFVIGSVAELQSIATLEAMSTGLPVVAADALALPHLVRPGRNGYLYPPGDVAQLAQRLLDVLESPDRRTAMGRASRDIAQTHDHHRSLDRFEQIYTEVRPRSWTLSRSASPAARQRDTTVAA | failed |
| MTSYSLEDFNTPLECAPLARWERKRKEQLDRTSKTPNKTPQGDRFIPNRNVMNIEVSRLNLQQEYYGKENNQNSSSLLDSHMDNVEWNSGKDSPACHHYQSALASSLLQNSYHEEHPQSKILTFKQKAPKPQEGYVNSLKVLYSQNMPQISEQRKRMIRHIPQTPDRILDAPELVDDYYLNLLDWNHENILAVALGSSVYLWNASTGDIQELCNVSQDEMICSVSWVPDGHHLAVGTSMKDVQLWDTQRGRQVRKMHSHSSRVGCLAWNGPILSSGSRDTTIHHHDVRIAQHHVETLRGHEQEVCGLKWNVDGSQLASGGNDNLLMIWDHFHSNQPKYRLDHHHAAVKAIAWCPWQTHLLASGGGTADRTIKFWNTTTGACLQSIDTKSQVCALIWNRHDKEIVSSHGFSQNQLIVWKYPSMVKMAELTGHTSRVLHLSLSPDGQTVVSGAGDETLRFWRVFEASESKLKSSNKTLGHSQKSIMRTCNIR | not failed |
| MTTDIDLEQGGAFGYHRRSLDGSDVSVYYSDGEDVMSCYSYFYSTTGGSYEYEGDQSRKVSSVMSPSSSEIDDDDATAPPEKDCRICHLGVETSGGGAIELGCSCKDDLAVAHRQCAETWFKIKGDKTCEICQSVARNVGGANEMVGSTMEERELRNGEETAAGEGGGATVVENRWQPQRVVNLVLACMVFGFFISWIFHFHVSSSS | failed |
| MTTDKQTSINLALSTINGKWKLSLMDELFQGTKRNGELMRALDGITQRVLTDRLREMEKDGLVHRESFNELPPRVEYTLTPEGYALYDALSSLCHWGETFAQKKARLNK | not failed |
| MTTENTTALLLIDFQNDYFSTYNGAKNPLVGTEAAAEQGAKLLAKFRQQGLPVVHVRHEFPTDEAPFFLPGSDGAKIHPSVAAQEGEAVVLKHQINSFRDTDLKKVLDDAGIKKLVIVGAMTHMCIDAVTRAAEDLGYECAVAHDACATLDLEFNGITVPAAQVHAAFMSALSFAYANVASADELIAGL | not failed |
| MTTETFLVEIGTEELPPKALRSLAESFATHFTAELDNANITHGDVSWFAAPRRLAIKVANMAKSQADRIVEKRGPAIAQAFDAEGKPTKAAEGWARGNGITVDQAERLSTDKGEWLFYRAEVKGEAVNQLLAGMVSNALAKLPIPKLMRWGDKETHFVRPVHTVTLLLGDTLIDGEILGVQSARIIRGHRFMGEAEFTIDNADQYPEILYERGKVIADYENRKSIILHDARLAAEKLGGVADLSDSLVEEVTSLVEWPVVLTAKFEEKFLEVPAEALVYTMKGDQKYFPVYDKQGALLPHFIFVSNIESSDPQQIISGNEKVVRPRLADAEFFFKTDRKQRLEDNLPRLETVLFQKNLGSLRDKTDRIQALAGFIAEKMGADVNKATRAGLLSKCDLMTNMVFEFTDTQGVMGMHYARHDGEDEEVAVALKEQYQPRFAGDALPSNPVASAVAIAEKMDTLAGIFGIGQHPKGDKDPFALRRAALGVLRIIVEQDLPLDIEELTQEAARLYGDKLTNQNVVSDVVEFMLGRFRAWYQELGYSIDTIQAVLARRPTQPADFNARVKAVTYFRTLEEAAALAEANKRVSNILAKSADVKLNDKVLASVLKAPEEVQLAANLSVLQDKLAPLFAERKYQEALVELASLRDVVNNFFDKVMVMDKDEEIRVNRLTMLHELRELFLKVADISVLQ | failed |
| MTTFLQRDDFAVTARVLGALFYYSPESHETAPLVQALLNDDWQAQWPLDAEALAPVAAMFKTHSEESLPQAWQRLFIGPYALPSPPWGSVWLDRESVLFGDSTLALRQWMRENGIQFEMQQNEPEDHFGSLLLLAAWLAENDRHHECEQLLAWHLFPWSSRFLDVFIDHAGHPFYQALGQLARLTLAQWQAQLIIPVAVKPLFR | not failed |
| MTTIAVLGNGRVGGNLATALTRAGHEVTVADRTPGAAADTARTAQIVINATPGAGSLDRLAALRDELRDKILVDVSNATNDGPDGLPADLIYPGSSLAEHLQEALPETRVVKTLNTMLFPVMTAPATLTQTPTAFLSGEDPQAKQTVRELLTDLGWHKEWIADLGGIQTARATEAAILFVPHVIGATGFTPFAISIARLEHHHHHH | not failed |
| MTTIHFHNVYVASRGTSVGLLEKQGPLGNRFDYTHEDNTCQQDSFEKAERYMLQEAVDATIRKSDYSIKDIEVMIGGDLINQLTSSHYFAKEFPISFLGMYAACASSSLVIGQAALWVEHQLAKTALAFTSSHVATAERQFRFPNEYGIQKKETTTCTVTGAGAVLLSRKKSKLKVASFTVGKVVDWQYNDANDMGVAMAPAAYDTLTTYFKDTNQSFQDFDLIVTGDLSKLGFAFLRDLLLQNGYCCEEKLQDCGLMIYDIVKQNVFCGGSGCACSMCVSMTKLLDLLEQQEARRIMVLATGALLSPIAIQQKESIPCIAHAIVYERS | failed |
| MTTLYANVYLLSTPQGRLLLDTGTVNHAPAFARLLRSFDPDAVVVTHSHIDHAGNAFLAARLGYPVLAHPLEHDRLLGHDLSMPYPAGQPGVGRLVSRLHPRPGAERLGALYPGDTVRGWEVVHLPGHTDGQIGLQRDGVLLAADAVLSHPRTGAHLPREGYNWDHAVALQTLKKVADLDLHTVLPGHGRALDMAQVRARAVRDDEPGDRAEDAA | failed |
| MTTNSSSNTVVVYHSGYGHTHRMAEAVAEGAEATLHAIDAEGNLSEDGWAALDAADAIIFGTPTYMGGPSWQFKKFADASSKPWFSAKWQDKVFGGFTNSASLNGDKLNTLQYLVLLAGQHGGLWVSLGIKPSNLKSSVRNDANRMGSYIAPMAQSDADAAPEEMSVGDLETARLYGARVANVARQHKSTERV | not failed |
| MTTPSASTRAVLEEACLSVGLDTTNAQPIRIAENAVWRLPGGVVVRVARPGQSAAAAREVQVARWLTAEGVPAVRALDLPQPVAASGHPVTFWQELPPHEIGTVTDVVVLLKQLHALPKPDLPLGELDPFVRLVERIDAAITISDDDQLWLKHRLEDLKQQWASRPKGLPECVVHGDAWVGNVARTEAGPMLLDFERASFGPPEWDLVSTAVKLTTTGAVSAEEYAAFCETYGVDVTEWEGYELLANARELRMVTYAAQHAASRPEWRREAQYRIDCLRGRAGAPPWRWKGII | failed |
| MTTQSQFLVNLSYGGLASQSNLRANNRVSPSSCQITRTNRSWALPVSFKVEKFQLQRGRRRRGSPCFGESEGLVKNGIGDADGIIIVDHGSRRRESNLMLEEFVKMFKEKTGYPIVEPAHMELAEPSIKDAFSLCVQQGAKRVVVSPFFLFPGRHWHTDIPSLTADAAKEFSGISYLITAPLGPHNLLLDVVNDRIQHCLSHVEGDADECLVCAGTNKCKLYNSS | failed |
| MTTRDRTAIFKRYREESVVAKRKRSGNDGIQTIGNQSLSGNHKELAPFLNKGSIQTDSHTVFLPPQWLDWYEELSNSVDSVTHQLAQLESLQQNHLLPGFEERSDEESQISELSRNITLLLQRSQERIRLLAPSSSEPNISSEEKLLRTNAQKYFASKLQELSLSFRRNQKEYLRKLQGQNALVEESTDENPLSTSLELEEYDPGFTQEQVMLLENSDQVASERQREIMKIASSINDLATIVKDIASLVIDQGTLLDRIDYNVEEIEVSTEGAVKELEKAKRSQKKG | failed |
| MTTTKDVPIDLKASGKTAADTSYSFSSDTKSVTVTGTKAALAKLKSLPVNVDVTNVDSTTTKTVDVSTSDEDGISSVSPTSVKVKITVKNDLEHHHHHH | not failed |
| MTTTLSPDTARQIVPPEERYAAELAFLAAYDDGPRPPAWRLTPRAVVTFVMGSDGRALRLPEGAETPEGVPRRLTVEGKFVGDRSLVERCVVTLAGERGLLLVGEPGTAKSMLSELLSAAVCGTSGLVVQGTAGTTEDQLKYGWNYALLLAQGPSRTALVPSPVLTAMARGGIARVEEVTRCLPEVQDALVSLLSERRIAVPELSGTDDALAHAAPGFNLIATANLRDKGVSEMSAALKRRFNFETVGPIPDLDAETALVRSQARASVERAGAPFKVDEAVLEALVVAFRDLREGRSTEGWEVERPSTVMSTAEAVSVAGALGLAAAYFPGDRDVLGLLPGHLLGVVRKDDPADAARLRGYWDGPVRRRAEQGSATWRTLWDLRTVLEGLEHHHHHH | failed |
| MTTTNEQEQSRAYILAGLFTLSLRLVVGWTYFSAFWRRLVLENKLIPDSAGYIGEKFNHFLPNSIGIRPVIEYLVSTPDMLWWAMVIFTLVEGIVGLLYMLGFFTRLMSIGVFSLATGILLGSGWLGTTCLDEWQIGILGIAAGFTIFLSGGGKYSVDHLIERKFSLKKKAAWLSWLTSGELPVSAKRFANVSVAGAIVIFTLSLYTNQEFHNGVWGPLHNKSVKPKIEISDAQIENNSLSFSVYRVEGVDVYGSFLIGISLKNADGDIVLEKKGEELADFPIGNIDNKYIARVAPGKHSLVIPLGSKATLTVDDTAIGSLPKGKYELVLTDISGITWKKEIIH | failed |
| MTTTPDWIMIGGDGPESYNQQSSYQRALLEATKDKMTKAISANLDLDLISNRFIVADFGCASGPNTFVAVQNIIDAVEEKYRRETGQNPADNIEFQVLFNDFSLNDFNTLFQTLPPGRRYFSAGVPGSFFERVLPKESFHIGVMSYAFHFTSKIPKGIMDRDSPLWNKDMQCTGFNPAVKKAYLDQYSIDTKILLDARAEELVPGGLMLLLGSCLRDGVKMSETPKGTVMDFIGESLSDLAKQGVTEQEKVDTFRTSIYFAEQGEIRQIIEENGKFTIEAFEDIIHAKNEFPFDPKTLAISFKAFYGAFISAHFGVEVMRKAFELVEVKAREQISRLHNSKPGMQYLIVLRKN | failed |
| MTVAFASDQRLENGAEQLESLRRQMALLSEKVSGGPSRSGDLVPAGPVSLPPGTVGVLSGARSLLLSMVASVTAAGGNAAIVGQPDIGLLAAVEMGADLSRLAMIPDPGTDPVEVAAVLIDGMDLVVLGLGGRRVTRARARAVVARARQKGCTLLVTDGDWQGVSTRLAARVCGYEITPALRGVPTPGLGRISGVRLQINGRGR | failed |
